One test concerns the target T1, HER3-ECD-Fc (human, UniProt P21860 20-643, limits assumed).
T1 construct: extracellular domain; also called HER3-FC; HER3-IgG
Description: radioligand blocking assay: antibody pre-bound to captured HER3-ECD-Fc, then 125I-HRG added; bound counts as % of control.

Test [1] addresses HER3 (form of the protein in the assay not stated) (UniProt P21860 20-643, limits assumed). Description: SPR BIAcore.

Changes are numbered by the printed parent chain.

B1: D1.5-115, mIgG2A (antibody, V domains shown)
VH: EVQLVESGGGLVQPGGSLRLSCAASGFTFTGNWIHWVRQAPGKGLEWVGEISPSGGYTDYADSVKGRFTISADTSKNTAYLQMNSLRAEDTAVYYCARESRVSYEAAMDYWGQGTLVTVSS
VL: DIQMTQSPSSLSASVGDRVTITCRASQEIFPDVAWYQQKPGKAPKLLIYSASSLYSGVPSRFSGSGSGTDFTLTISSLQPEDFATYYCQQAAPTPYTFGQGTKVEIKR
Regarding B1, the “IC50 (read off the curve)” value with HER3-ECD-Fc was around 3 nM.

B2: D1.5-113, mIgG2A (antibody, V domains shown)
VH: B1 VH
VL: DIQMTQSPSSLSASVGDRVTITCRASQSLLASHDGTPWVAWYQQKPGKAPKLLIYDASYLYSGVPSRFSGSGSGTDFTLTISSLQPEDFATYYCQQSTFAPYTFGQGTKVEIKR
Consider B2, for which the “IC50 (read off the curve)” value in the test with HER3-ECD-Fc is around 3 nM.

B3: D1.5-121, mIgG2A (antibody, V domains shown)
VH: B1 VH
VL: B1 VL with E28D, I29V, F30G, P31S, V33L, S53Y, A91S, A92D, T94E
In the case of B3, the “IC50 (read off the curve)” value with HER3-ECD-Fc was around 5 nM.

B4: D1.5-116, mIgG2A (antibody, V domains shown)
VH: B1 VH
VL: B1 VL with E28A, F30A, P31S, S53F, A91S, A92E, T94E
Consider B4, for which, in the test with HER3-ECD-Fc, the “IC50 (read off the curve)” value was around 4 nM.

B5: DL11b (bispecific antibody, V domains shown)
VH: B1 VH with F29L, T30S, N32D, V48L, P53A, S54A, Y104F
VL: B1 VL with E28N, F30A, P31T, S53F, A91S, A92E, T94E
Consider B5, for which, in test [1], the binding result is “binds”.

These data come from US20100255010A1 (Genentech, published 2010).
